B1: 4G8.3-LS-9E8.4 (g) DVD-Ig (PR-1572106) (bispecific antibody, human IgG1, kappa, L234A L235A)
heavy: EVQLVQSGSELKKPGASVKVSCKASGYTFTNYGMYWVRQAPGQGLEWMGWINTETGKPTYADDFKGRFVFSLDTSVSTAYLQISSLKAEDTAVYYCARTNYYYRSYIFYFDYWGQGTMVTVSSASTKGPSVFPLAPEVTLRESGPALVKPTQTLTLTCTFSGFSLSTYGMGVGWIRQPPGKALEWLANIWWDDDKYYNPSLKNRLTISKDTSKNQVVLTMTNMDPVDTATYYCARIESIGTTYSFDYWGQGTMVTVSSASTKGPSVFPLAPSSKSTSGGTAALGCLVKDYFPEPVTVSWNSGALTSGVHTFPAVLQSSGLYSLSSVVTVPSSSLGTQTYICNVNHKPSNTKVDKKVEPKSCDKTHTCPPCPAPEAAGGPSVFLFPPKPKDTLMISRTPEVTCVVVDVSHEDPEVKFNWYVDGVEVHNAKTKPREEQYNSTYRVVSVLTVLHQDWLNGKEYKCKVSNKALPAPIEKTISKAKGQPREPQVYTLPPSREEMTKNQVSLTCLVKGFYPSDIAVEWESNGQPENNYKTTPPVLDSDGSFFLYSKLTVDKSRWQQGNVFSCSVMHEALHNAYTQKSLSLSPGK
light: DTVLTQSPATLSLSPGERATLSCRASESVSTHMHWYQQKPGQAPRLLIYGASNLESGVPARFSGSGSGTDFTLTISSLEPEDFAVYFCQQSWNDPFTFGQGTKLEIKRTVAAPEFVLTQSPGTLSLSPGERATLSCERSSGDIGDSYVSWYQQKPGQAPRLVIYADDQRPSGIPDRFSGSGSGTDFTLTISRLEPEDFAVYYCQSYDINIDIVFGGGTKVEIKRTVAAPSVFIFPPSDEQLKSGTASVVCLLNNFYPREAKVQWKVDNALQSGNSQESVTEQDSKDSTYSLSSTLTLSKADYEKHKVYACEVTHQGLSSPVTKSFNRGEC
B2: CODV005 cross-over DVD-Ig (PR-1565083) (bispecific antibody, human IgG1, kappa, L234A L235A)
heavy: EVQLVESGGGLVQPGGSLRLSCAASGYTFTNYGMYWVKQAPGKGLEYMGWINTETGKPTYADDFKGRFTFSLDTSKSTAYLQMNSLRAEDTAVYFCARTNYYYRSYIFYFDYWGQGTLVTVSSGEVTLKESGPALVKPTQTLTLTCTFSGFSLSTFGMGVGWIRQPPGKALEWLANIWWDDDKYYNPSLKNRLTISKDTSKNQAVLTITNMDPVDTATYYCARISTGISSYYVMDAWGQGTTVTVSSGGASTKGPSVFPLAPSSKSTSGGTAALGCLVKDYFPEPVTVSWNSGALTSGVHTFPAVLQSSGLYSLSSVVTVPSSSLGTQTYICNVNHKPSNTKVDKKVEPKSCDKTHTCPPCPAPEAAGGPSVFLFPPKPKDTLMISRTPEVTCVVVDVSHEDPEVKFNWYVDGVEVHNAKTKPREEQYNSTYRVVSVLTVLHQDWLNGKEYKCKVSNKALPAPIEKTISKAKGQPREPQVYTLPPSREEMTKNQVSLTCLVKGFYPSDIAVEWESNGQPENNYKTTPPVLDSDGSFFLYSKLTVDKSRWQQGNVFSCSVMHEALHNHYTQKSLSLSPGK
light: DFQLTQSPSSLSASVGDRVTITCERSSGDIGDTYVSWYQQKPGKAPKNVIYGNDQRPSGVPSRFSGSGSGNSATLTISSLQPEDFATYFCQSYDSDIDIVFGQGTKVEIKGGGSGGGDTQLTQSPSSLSASVGDRVTISCRASESVSTHMHWYQQKPGKAPKLLIYGASNLESGVPSRFSGSGSGTDFTLTISSLQPEDFATYFCQQSWNDPFTFGQGTKVEIKGGGSGRTVAAPSVFIFPPSDEQLKSGTASVVCLLNNFYPREAKVQWKVDNALQSGNSQESVTEQDSKDSTYSLSSTLTLSKADYEKHKVYACEVTHQGLSSPVTKSFNRGEC
B3: CODV007 cross-over DVD-Ig (PR-1565085) (bispecific antibody, human IgG1, kappa, L234A L235A)
heavy: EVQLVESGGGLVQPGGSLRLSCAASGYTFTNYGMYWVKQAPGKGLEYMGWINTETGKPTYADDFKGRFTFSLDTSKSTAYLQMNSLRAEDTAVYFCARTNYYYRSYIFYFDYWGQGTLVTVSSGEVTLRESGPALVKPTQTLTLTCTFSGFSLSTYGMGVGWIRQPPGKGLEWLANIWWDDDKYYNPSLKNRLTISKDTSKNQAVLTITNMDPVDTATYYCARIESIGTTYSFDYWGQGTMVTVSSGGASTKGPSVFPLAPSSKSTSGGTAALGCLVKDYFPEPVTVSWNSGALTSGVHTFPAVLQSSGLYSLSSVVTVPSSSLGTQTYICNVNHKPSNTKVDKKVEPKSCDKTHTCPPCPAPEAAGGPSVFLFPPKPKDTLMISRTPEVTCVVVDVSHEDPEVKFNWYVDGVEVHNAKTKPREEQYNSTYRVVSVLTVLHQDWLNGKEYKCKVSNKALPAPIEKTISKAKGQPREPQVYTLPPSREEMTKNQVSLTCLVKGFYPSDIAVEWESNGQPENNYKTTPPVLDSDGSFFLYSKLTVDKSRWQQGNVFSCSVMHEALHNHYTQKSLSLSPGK
light: DFQLTQSPSSLSASVGDRVTITCERSSGDIGDSYVSWYQQKPGKAPKNVIYADDQRPSGVPSRFSGSGSGNSASLTISSLQPEDFATYFCQSYDINIDIVFGQGTKVEIKGGGSGGGDTQLTQSPSSLSASVGDRVTISCRASESVSTHMHWYQQKPGKAPKLLIYGASNLESGVPSRFSGSGSGTDFTLTISSLQPEDFATYFCQQSWNDPFTFGQGTKVEIKGGGSGRTVAAPSVFIFPPSDEQLKSGTASVVCLLNNFYPREAKVQWKVDNALQSGNSQESVTEQDSKDSTYSLSSTLTLSKADYEKHKVYACEVTHQGLSSPVTKSFNRGEC
B4: CODV006 cross-over DVD-Ig (PR-1565084) (bispecific antibody, human IgG1, kappa, L234A L235A)
heavy: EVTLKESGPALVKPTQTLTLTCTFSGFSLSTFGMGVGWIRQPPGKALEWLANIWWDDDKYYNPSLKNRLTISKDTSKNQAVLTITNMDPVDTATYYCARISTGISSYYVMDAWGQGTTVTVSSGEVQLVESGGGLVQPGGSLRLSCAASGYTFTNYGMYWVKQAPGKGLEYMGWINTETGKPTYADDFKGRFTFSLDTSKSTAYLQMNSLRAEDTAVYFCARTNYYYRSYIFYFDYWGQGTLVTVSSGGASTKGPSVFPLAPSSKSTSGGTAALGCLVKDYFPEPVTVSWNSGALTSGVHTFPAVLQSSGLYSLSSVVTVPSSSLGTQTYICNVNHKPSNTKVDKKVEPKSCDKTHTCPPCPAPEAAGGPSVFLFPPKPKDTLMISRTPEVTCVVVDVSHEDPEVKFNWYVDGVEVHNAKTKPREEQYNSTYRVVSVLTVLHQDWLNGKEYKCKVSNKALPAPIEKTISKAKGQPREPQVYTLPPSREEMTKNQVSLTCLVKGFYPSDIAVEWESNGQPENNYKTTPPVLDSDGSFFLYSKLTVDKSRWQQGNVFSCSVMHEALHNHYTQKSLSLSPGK
light: DTQLTQSPSSLSASVGDRVTISCRASESVSTHMHWYQQKPGKAPKLLIYGASNLESGVPSRFSGSGSGTDFTLTISSLQPEDFATYFCQQSWNDPFTFGQGTKVEIKGGGSGGGDFQLTQSPSSLSASVGDRVTITCERSSGDIGDTYVSWYQQKPGKAPKNVIYGNDQRPSGVPSRFSGSGSGNSATLTISSLQPEDFATYFCQSYDSDIDIVFGQGTKVEIKGGGSGRTVAAPSVFIFPPSDEQLKSGTASVVCLLNNFYPREAKVQWKVDNALQSGNSQESVTEQDSKDSTYSLSSTLTLSKADYEKHKVYACEVTHQGLSSPVTKSFNRGEC
B5: CODV008 cross-over DVD-Ig (PR-1565086) (bispecific antibody, human IgG1, kappa, L234A L235A)
heavy: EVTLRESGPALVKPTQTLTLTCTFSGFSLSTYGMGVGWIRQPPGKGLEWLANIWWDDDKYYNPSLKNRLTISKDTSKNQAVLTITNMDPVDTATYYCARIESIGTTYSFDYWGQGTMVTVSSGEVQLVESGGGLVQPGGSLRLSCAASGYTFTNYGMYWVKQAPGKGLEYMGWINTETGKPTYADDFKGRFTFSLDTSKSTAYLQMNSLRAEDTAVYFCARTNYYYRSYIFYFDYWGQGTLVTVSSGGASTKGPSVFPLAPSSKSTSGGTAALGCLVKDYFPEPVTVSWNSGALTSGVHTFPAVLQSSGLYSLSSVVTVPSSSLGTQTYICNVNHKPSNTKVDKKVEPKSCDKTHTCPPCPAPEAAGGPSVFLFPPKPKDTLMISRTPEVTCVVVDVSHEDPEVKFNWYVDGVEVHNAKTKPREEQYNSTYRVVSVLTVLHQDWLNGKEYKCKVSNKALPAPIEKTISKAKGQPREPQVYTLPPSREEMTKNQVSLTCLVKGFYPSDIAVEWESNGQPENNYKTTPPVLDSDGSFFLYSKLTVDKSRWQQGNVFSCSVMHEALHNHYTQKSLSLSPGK
light: DTQLTQSPSSLSASVGDRVTISCRASESVSTHMHWYQQKPGKAPKLLIYGASNLESGVPSRFSGSGSGTDFTLTISSLQPEDFATYFCQQSWNDPFTFGQGTKVEIKGGGSGGGDFQLTQSPSSLSASVGDRVTITCERSSGDIGDSYVSWYQQKPGKAPKNVIYADDQRPSGVPSRFSGSGSGNSASLTISSLQPEDFATYFCQSYDINIDIVFGQGTKVEIKGGGSGRTVAAPSVFIFPPSDEQLKSGTASVVCLLNNFYPREAKVQWKVDNALQSGNSQESVTEQDSKDSTYSLSSTLTLSKADYEKHKVYACEVTHQGLSSPVTKSFNRGEC
B6: 4G8.3-GS(11)-9E8.4 (g) DVD-Ig (PR-1572103) (bispecific antibody, human IgG1, kappa, L234A L235A)
heavy: EVQLVQSGSELKKPGASVKVSCKASGYTFTNYGMYWVRQAPGQGLEWMGWINTETGKPTYADDFKGRFVFSLDTSVSTAYLQISSLKAEDTAVYYCARTNYYYRSYIFYFDYWGQGTMVTVSSGGGGSGGGGSEVTLRESGPALVKPTQTLTLTCTFSGFSLSTYGMGVGWIRQPPGKALEWLANIWWDDDKYYNPSLKNRLTISKDTSKNQVVLTMTNMDPVDTATYYCARIESIGTTYSFDYWGQGTMVTVSSASTKGPSVFPLAPSSKSTSGGTAALGCLVKDYFPEPVTVSWNSGALTSGVHTFPAVLQSSGLYSLSSVVTVPSSSLGTQTYICNVNHKPSNTKVDKKVEPKSCDKTHTCPPCPAPEAAGGPSVFLFPPKPKDTLMISRTPEVTCVVVDVSHEDPEVKFNWYVDGVEVHNAKTKPREEQYNSTYRVVSVLTVLHQDWLNGKEYKCKVSNKALPAPIEKTISKAKGQPREPQVYTLPPSREEMTKNQVSLTCLVKGFYPSDIAVEWESNGQPENNYKTTPPVLDSDGSFFLYSKLTVDKSRWQQGNVFSCSVMHEALHNAYTQKSLSLSPGK
light: DTVLTQSPATLSLSPGERATLSCRASESVSTHMHWYQQKPGQAPRLLIYGASNLESGVPARFSGSGSGTDFTLTISSLEPEDFAVYFCQQSWNDPFTFGQGTKLEIKRGGSGGGGSGGEFVLTQSPGTLSLSPGERATLSCERSSGDIGDSYVSWYQQKPGQAPRLVIYADDQRPSGIPDRFSGSGSGTDFTLTISRLEPEDFAVYYCQSYDINIDIVFGGGTKVEIKRTVAAPSVFIFPPSDEQLKSGTASVVCLLNNFYPREAKVQWKVDNALQSGNSQESVTEQDSKDSTYSLSSTLTLSKADYEKHKVYACEVTHQGLSSPVTKSFNRGEC
B7: 4G8.3-GS(noR)-9E8.4 (g) DVD-Ig (PR-1572104) (bispecific antibody, human IgG1, kappa, L234A L235A)
heavy: EVQLVQSGSELKKPGASVKVSCKASGYTFTNYGMYWVRQAPGQGLEWMGWINTETGKPTYADDFKGRFVFSLDTSVSTAYLQISSLKAEDTAVYYCARTNYYYRSYIFYFDYWGQGTMVTVSSGGGGSGGGGSEVTLRESGPALVKPTQTLTLTCTFSGFSLSTYGMGVGWIRQPPGKALEWLANIWWDDDKYYNPSLKNRLTISKDTSKNQVVLTMTNMDPVDTATYYCARIESIGTTYSFDYWGQGTMVTVSSASTKGPSVFPLAPSSKSTSGGTAALGCLVKDYFPEPVTVSWNSGALTSGVHTFPAVLQSSGLYSLSSVVTVPSSSLGTQTYICNVNHKPSNTKVDKKVEPKSCDKTHTCPPCPAPEAAGGPSVFLFPPKPKDTLMISRTPEVTCVVVDVSHEDPEVKFNWYVDGVEVHNAKTKPREEQYNSTYRVVSVLTVLHQDWLNGKEYKCKVSNKALPAPIEKTISKAKGQPREPQVYTLPPSREEMTKNQVSLTCLVKGFYPSDIAVEWESNGQPENNYKTTPPVLDSDGSFFLYSKLTVDKSRWQQGNVFSCSVMHEALHNAYTQKSLSLSPGK
light: DTVLTQSPATLSLSPGERATLSCRASESVSTHMHWYQQKPGQAPRLLIYGASNLESGVPARFSGSGSGTDFTLTISSLEPEDFAVYFCQQSWNDPFTFGQGTKLEIKGGSGGGGSGGEFVLTQSPGTLSLSPGERATLSCERSSGDIGDSYVSWYQQKPGQAPRLVIYADDQRPSGIPDRFSGSGSGTDFTLTISRLEPEDFAVYYCQSYDINIDIVFGGGTKVEIKRTVAAPSVFIFPPSDEQLKSGTASVVCLLNNFYPREAKVQWKVDNALQSGNSQESVTEQDSKDSTYSLSSTLTLSKADYEKHKVYACEVTHQGLSSPVTKSFNRGEC

Target: recombinant human PDGF-BB (human, UniProt P01127 82-190)
Assay: cell-based or functional assay

Chain of recombinant human PDGF-BB (P01127 82-190 limits assumed): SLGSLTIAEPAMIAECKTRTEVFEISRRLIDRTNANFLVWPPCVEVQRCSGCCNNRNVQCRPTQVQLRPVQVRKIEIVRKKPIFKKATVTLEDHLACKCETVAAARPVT

Point of comparison: B7, “NIH-3T3 hPDGF-BB Potency IC50” value 95 pM. Against it:
- B1 — within 1.5-fold, 109 pM
- B2 — higher, > 5000 pM
- B3 — higher, > 5000 pM
- B4 — higher, > 5000 pM
- B5 — higher, > 5000 pM
- B6 — 3.1-fold higher, 298 pM
